Target: CD44 hyaluronic acid binding domain (HABD) (UniProt P16070 P16070:21-178)
Assay: ELONA; hardly associated with HABD; epitope expected in region encoded by exons 15-16
Details: tags: His-tag, commercial; captured via His-tag antibody; label: biotin (loop of second hairpin, 44G-48A region); two hairpins and one stem (predicted)
Protocol: His-tag recombinant CD44 HABD protein was immobilized on ELISA plate using His-tag antibody. The captured CD44 proteins were incubated with various concentrations of biotin-labeled CD44-Apt1 (5 nM-10 μM). Bound Apt1 then were detected by peroxidase-conjugated streptavidin and TMB substrate. […] constant, KD was calculated based on the absorbance values using the one-site binding model for non-linear regression in GraphPad.
The major epitope in CD44 protein that is recognized by the CD44-Apt1 was next determined. CD44 protein consists of an extracellular domain, a transmembrane helical domain, and an intracellular signaling transmission domain (FIG. 1H). The extracellular domain contains a hyaluronic acid binding domain (HABD) at its distal N-terminus and a glycosylation-site enriched variable region, the length of which are vary in different splice variants. Titration sandwich enzyme-linked immunosorbent assay (ELISA) was employed to map the epitope for CD44-Apt1. Antibody targeting the C-terminus of CD44 proteins that is the intracellular signaling domain was immobilized on a polystyrene support. Sites without antibody were blocked using bovine serum albumin. […] The amount of biotin-CD44-Apt1 bound to the captured proteins were evaluated using streptavidin conjugated horseradish peroxidase (HRP) and TMB substrate.

CD44 hyaluronic acid binding domain (HABD), sequence (P16070 21-178, one chain of several): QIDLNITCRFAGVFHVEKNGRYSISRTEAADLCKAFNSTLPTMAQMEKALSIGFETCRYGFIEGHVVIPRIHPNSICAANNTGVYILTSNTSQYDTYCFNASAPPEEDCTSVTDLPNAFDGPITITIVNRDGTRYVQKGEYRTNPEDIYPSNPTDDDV

B1: CD44-Apt1 (biotin) (ssDNA)
DNA: ATCCAGAGTGACGCAGCATCGCAACGATTAGTATGCACCCACCGTATAGGTTGGTCTCTGGACACGGTGGCTTAGT
Q: How did the Kd turn out when B1 was run?
A: 2.36 µM
